# Assay results from publication PMC6301718, “CDHR3 extracellular domains EC1-3 mediate rhinovirus C interaction with cells and as recombinant derivatives, are inhibitory to virus infection” (PLoS Pathogens, 2018).
# Tests used:
# [1] = biological target: rEC1 (CDHR3 residues 20–130) (human) (UniProt Q6ZTQ4); experiment: co-IP; refolded bacterial CDHR3 fragment (100 pmol) incubated with C15 virus (10^7 PFUe, 1 h, 25°C) and α-His mAb in 20 mM Tris, 137 mM NaCl, 2 mM CaCl2, 1% Triton x-100, protein-G sepharose; Western with α-His and α-C15; complexes also treated with 500 mM NaCl (Fig 5d)
# [2] = biological target: rEC1-2 (CDHR3 residues 20–237) (human) (UniProt Q6ZTQ4); experiment: as above
# [3] = biological target: rEC1-3 K43A (20–345, C345A, K43A) (human) (UniProt Q6ZTQ4); experiment: as above
# [4] = biological target: rEC1-3 (CDHR3 residues 20–345, C345A) (human) (UniProt Q6ZTQ4); experiment: as above
# [5] = biological target: rEC1-3 N186A (20–345, C345A, N186A) (human) (UniProt Q6ZTQ4); experiment: as above
# [6] = biological target: rEC1+3(Δ2) (CDHR3 residues 20–345, Δ129–231) (human) (UniProt Q6ZTQ4); experiment: as above
# [7] = biological target: pHL-FLAG-CDHR3-His EC1-3 (1–345) (human) (UniProt Q6ZTQ4); experiment: co-IP; HeLa-expressed CDHR3 fragments recovered from lysate with α-His mAb, denatured and refolded as the bacterial proteins, reacted with C15 virus; IP and detection with α-His mAb
# [8] = biological target: FLAG-tag-CDHR3 Y529 N186Q (human) (UniProt Q6ZTQ4); experiment: co-IP; clarified lysate of transfected or stably transduced HeLa cells (2 mM CaCl2) incubated with sucrose purified C15 virus (10^7 PFUe) and α-CDHR3 antibody (cytoplasmic domain) overnight at 4°C, protein-G sepharose; Western with α-CDHR3 and α-C15
# [9] = biological target: FLAG-tag-CDHR3 Y529 K43A (human) (UniProt Q6ZTQ4); experiment: as above
# [10] = biological target: FLAG-tag-CDHR3 Y529 R166A (human) (UniProt Q6ZTQ4); experiment: as above
# [11] = biological target: FLAG-tag-CDHR3 Y529 N186A (human) (UniProt Q6ZTQ4); experiment: as above
# [12] = biological target: FLAG-tag-CDHR3 Y529 W76A (human) (UniProt Q6ZTQ4); experiment: as above
# [13] = biological target: the molecule itself; experiment: SEC; HiPrep 16/60 Sephacryl S200, refolded protein 0.5–1.5 mg, 1 mL/min, 20 mM Tris (pH 8.0), 137 mM NaCl, 2 mM CaCl2
# Sequence of rhinovirus C15 virion (complex) (E5D8F2 568-846 limits assumed): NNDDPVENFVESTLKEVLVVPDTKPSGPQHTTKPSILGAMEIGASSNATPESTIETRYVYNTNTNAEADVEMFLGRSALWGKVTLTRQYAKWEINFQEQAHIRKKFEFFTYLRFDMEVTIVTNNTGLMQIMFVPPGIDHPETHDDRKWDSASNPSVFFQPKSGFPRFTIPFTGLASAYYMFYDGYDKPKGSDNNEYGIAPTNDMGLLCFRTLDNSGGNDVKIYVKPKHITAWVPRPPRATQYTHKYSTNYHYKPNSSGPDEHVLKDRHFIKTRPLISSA
# Sequence of rhinovirus C15 virion (complex) (E5D8F2 68-332 limits assumed): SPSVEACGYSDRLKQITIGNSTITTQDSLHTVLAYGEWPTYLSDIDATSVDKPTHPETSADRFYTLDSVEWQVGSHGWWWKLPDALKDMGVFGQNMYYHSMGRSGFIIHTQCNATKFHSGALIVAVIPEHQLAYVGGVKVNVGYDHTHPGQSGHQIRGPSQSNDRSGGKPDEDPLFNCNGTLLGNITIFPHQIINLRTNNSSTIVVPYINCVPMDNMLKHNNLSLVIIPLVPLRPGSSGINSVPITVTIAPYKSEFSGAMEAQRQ
# Sequence of rhinovirus C15 virion (complex) (E5D8F2 333-567 limits assumed): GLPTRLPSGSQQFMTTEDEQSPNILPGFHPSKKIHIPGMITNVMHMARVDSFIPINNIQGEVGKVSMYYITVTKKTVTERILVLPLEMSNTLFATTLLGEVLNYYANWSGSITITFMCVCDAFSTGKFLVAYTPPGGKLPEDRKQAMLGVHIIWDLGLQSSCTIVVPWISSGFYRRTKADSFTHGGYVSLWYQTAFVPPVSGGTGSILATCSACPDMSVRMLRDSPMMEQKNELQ
# Sequence of rhinovirus C15 virion (complex) (E5D8F2 2-67 limits assumed): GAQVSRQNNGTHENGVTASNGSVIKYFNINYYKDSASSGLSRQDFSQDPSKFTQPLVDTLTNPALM
molecule,measurement,setting,value
rhinovirus C15 virion (complex),binding % relative to the positive control (100) of the panel,[1],100%
same,binding % relative to the positive control (100) of the panel,[2],87%
same,binding % relative to WT rEC1-3,[3],22%
same,binding % relative to the positive control (100) of the panel,[4],61%
same,binding % relative to WT rEC1-3,[5],85 % of WT
same,binding % relative to the positive control (100) of the panel,[6],68%
same,binding % after refolding relative to the same protein not refolded,[7],213%
same,binding % relative to WT CDHR3 (C15 signal normalized to CDHR3 signal),[8],19%
same,binding % relative to WT CDHR3 (C15 signal normalized to CDHR3 signal),[9],46%
same,binding % relative to WT CDHR3 (C15 signal normalized to CDHR3 signal),[10],16%
same,binding % relative to WT CDHR3 (C15 signal normalized to CDHR3 signal),[11],11%
same,% more virus pull-down than WT (% more than WT),[12],50 to 80
"rEC1-3 (CDHR3 residues 20–345, C345A) (domain or fragment, numbering from GenBank AIC58018; also called soluble CDHR3 rEC1-3; not shown: His6, C-terminal, kept) LHLILLPATGNVAENSPPGTSVHKFSVKLSASLSPVIPGFPQIVNSNPLTEAFRVNWLSGTYFEVVTTGMEQLDFETGPNIFDLQIYVKDEVGVTDLQVLTVQVTDVNEPPQFQGNLAEGLHLYIVERANPGFIYQVEAFDPEDTSRNIPLSYFLISPPKSFRMSANGTLFSTTELDFEAGHRSFHLIVEVRDSGGLKASTELQVNIVNLNDEVPRFTSPTRVYTVLEELSPGTIVANITAEDPDDEGFPSHLLYSITTVSKYFMINQLTGTIQVAQRIDRDAGELRQNPTISLEVLVKDRPYGGQENRIQITFIVEDVNDNPATA",binding result,[13],binds
"rEC1-2 (CDHR3 residues 20–237) (domain or fragment, CDHR3, human, residues 20-237 (EC1 and EC2); numbering from GenBank AIC58018; also called rE1-2; rEC1-2 WT; not shown: His6, C-terminal, kept) LHLILLPATGNVAENSPPGTSVHKFSVKLSASLSPVIPGFPQIVNSNPLTEAFRVNWLSGTYFEVVTTGMEQLDFETGPNIFDLQIYVKDEVGVTDLQVLTVQVTDVNEPPQFQGNLAEGLHLYIVERANPGFIYQVEAFDPEDTSRNIPLSYFLISPPKSFRMSANGTLFSTTELDFEAGHRSFHLIVEVRDSGGLKASTELQVNIVNLNDEVPRFT",binding result,[13],binds
"rEC1-2 W76A (CDHR3 residues 20–237, W76A) (domain or fragment, human, UniProt Q6ZTQ4 20-237, looked up, CDHR3, human, residues 20-237; numbering from GenBank AIC58018; not shown: His6, C-terminal, kept) LHLILLPATGNVAENSPPGTSVHKFSVKLSASLSPVIPGFPQIVNSNPLTEAFRVNALSGTYFEVVTTGMEQLDFETGPNIFDLQIYVKDEVGVTDLQVLTVQVTDVNEPPQFQGNLAEGLHLYIVERANPGFIYQVEAFDPEDTSRNIPLSYFLISPPKSFRMSANGTLFSTTELDFEAGHRSFHLIVEVRDSGGLKASTELQVNIVNLNDEVPRFT",binding result,[13],binds
